US11965030 (Sanofi, dated 2024)
Positions count from the first letter of the chain named. Names may count otherwise.

T1: GITR (UniProt Q9Y5U5 26-161, limits assumed)
T1 construct: construct not described; also called Glucocorticoid-Induce TNFR-Related Protein (GITR)
T1 sequence (looked up): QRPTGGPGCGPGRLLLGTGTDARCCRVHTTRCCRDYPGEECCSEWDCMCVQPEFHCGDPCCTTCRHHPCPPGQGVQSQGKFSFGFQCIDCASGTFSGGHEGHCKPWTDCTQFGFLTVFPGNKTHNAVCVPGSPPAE

T2: OX40 (UniProt P43489 29-216)
T2 construct: construct not described
T2 sequence (looked up): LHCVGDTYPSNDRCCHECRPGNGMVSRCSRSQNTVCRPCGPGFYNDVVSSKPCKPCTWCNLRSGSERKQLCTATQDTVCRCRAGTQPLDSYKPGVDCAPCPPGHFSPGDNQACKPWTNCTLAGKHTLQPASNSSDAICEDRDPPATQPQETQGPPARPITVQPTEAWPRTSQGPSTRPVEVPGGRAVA

B1: anti-CD40 × anti-PD-L1 Y-shaped antibody Y30 (bispecific antibody)
light 1: DIQMTQSPSSVSASVGDRVTITCRASQGIYSWLAWYQQKPGKAPNLLIYTASTLQSGVPSRFSGSGSGTDFTLTISSLQPEDFATYYCQQANIFPLTFGGGTKVEIKRTVAAPSVFIFPPSDEQLKSGTASVVCLLNNFYPREAKVQWKVDNALQSGNSQESVTEQDSKDSTYSLSSTLTLSKADYEKHKVYACEVTHQGLSSPVTKSFNRGEC
heavy 1: not shown
heavy 2: not shown
light 2: not shown
notes: CD40 arm wild type (knob); PD-L1 arm S114A,E123K,N137K / T192E,K221E (hole)
B2: PD-L1 (Q38E-Q39K)-(CH1: L143Q, S188V; CK: V133T, S176V) × OX40 (Q38K-Q39E)-(CH1: T192E; CK: N137K, S114A) (open) (bispecific antibody)
light 1: not shown
heavy: not shown
light 2: B1 light 1 with Q38K, S114A, N137K
notes: Tandem Fab; also called T18
B3: CD40 (Q38E-Q39K)-(CH1: L143Q, S188V; CK: V133T, S176V) × PD-L1 (Q38K-Q39E)-(CH1: T192E; CK: N137K, S114A) (closed) (bispecific antibody)
light 1: not shown
heavy: not shown
light 2: B1 light 1 with Q38K, S114A, N137K
notes: Tandem Fab; also called T14
B4: CD40 (Q38E-Q39K)-(CH1: L143Q, S188V; CK: V133T, S176V) × PD-L1 (Q38K-Q39E)-(CH1: T192E; CK: N137K, S114A) (open) (bispecific antibody)
light 1: B1 light 1 with Q38K, S114A, N137K
heavy: not shown
light 2: not shown
notes: Tandem Fab; also called T26
B5: CD40 (Q38E-Q39K)-(CH1: L143Q, S188V; CK: V133T, S176V) × PD-L1 (Q38K-Q39E)-(CH1: T192E; CK: N137K, S114A) (closed) (bispecific antibody)
light 1: B1 light 1 with Q38K, S114A, N137K
heavy: not shown
light 2: not shown
notes: Tandem Fab; Same printed name as T14; also called T22
B6: CD40 (CH1: L143Q, S188V; CK: V133T, S176V) × PD-L1 (CH1: T192E; CK: N137K, S114A) (closed) (bispecific antibody)
light 1: B1 light 1 with S114A, N137K
heavy: not shown
light 2: not shown
notes: Tandem Fab; also called T13
B7: PD-L1 (Q38K-Q39E)-(CH1: T192E; CK: N137K, S114A) × CD40 (Q38E-Q39K)-(CH1: L143Q, S188V; CK: V133T, S176V) (open) (bispecific antibody)
light 1: not shown
heavy: not shown
light 2: B1 light 1 with S114A, N137K
notes: Tandem Fab; also called T16
B8: CD40 (CH1: L143Q, S188V; CK: V133T, S176V) × PD-L1 (CH1: T192E; CK: N137K, S114A) (open) (bispecific antibody)
light 1: B1 light 1 with S114A, N137K
heavy: not shown
light 2: not shown
notes: Tandem Fab; also called T17
B9: GITR (Q38K-Q39E)-(CH1: T192E; CK: N137K, S114A) × OX40 (Q38E-Q39K)-(CH1: L143Q, S188V; CK: V133T, S176V) (closed) (bispecific antibody)
light 1: EIVMTQSPATLSVSPGERATLSCKASQNVGTNVAWYQKKPGQAPRLLIYSASYRYSGIPARFSGSGSGTEFTLTISSLQSEDFAVYYCQQYNTDPLTFGGGTKVEIKRTVAAPAVFIFPPSDEQLKSGTASVVCLLKNFYPREAKVQWKVDNALQSGNSQESVTEQDSKDSTYSLSSTLTLSKADYEKHKVYACEVTHQGLSSPVTKSFNRGEC
heavy: not shown
light 2: not shown
notes: Tandem Fab; also called T3
B10: OX40 (CH1: L143Q, S188V; CK: V133T, S176V) × GITR (CH1: T192E; CK: N137K, S114A) (closed) (bispecific antibody)
light 1: not shown
heavy: not shown
light 2: B9 light 1 with K38Q
notes: Tandem Fab; also called T4
B11: GITR (CH1: T192E; CK: N137K, S114A) × OX40 (CH1: L143Q, S188V; CK: V133T, S176V) (open) (bispecific antibody)
light 1: B9 light 1 with K38Q
heavy: not shown
light 2: not shown
notes: Tandem Fab; LC-2 as printed is the light chain that elsewhere goes with PD1 (EIVLTQ...SSNWPRT), not the OX40 light chain; also called T6
B12: OX40 (CH1: L143Q, S188V; CK: V133T, S176V) × GITR (CH1: T192E; CK: N137K, S114A) (open) (bispecific antibody)
light 1: not shown
heavy: not shown
light 2: B9 light 1 with K38Q
notes: Tandem Fab; also called T8
B13: OX40 (Q38E-Q39K)-(CH1: L143Q, S188V; CK: V133T, S176V) × GITR (Q38K-Q39E)-CH1: T192E; CK: N137K, S114A) closed) (bispecific antibody)
light 1: not shown
heavy: not shown
light 2: B9 light 1
notes: Tandem Fab; also called T5
B14: GITR (Q38K-Q39E)-(CH1: T192E; CK: N137K, S114A) × OX40 (Q38E-Q39K)-(CH1: L143Q, S188V; CK: V133T, S176V) (open) (bispecific antibody)
light 1: B9 light 1
heavy: not shown
light 2: not shown
notes: Tandem Fab; also called T7
B15: OX40 (Q38E-Q39K)-(CH1: L143Q, S188V; CK: V133T, S176V) × GITR (Q38K-Q39E)-(CH1: T192E; CK: N137K, S114A) (open) (bispecific antibody)
light 1: not shown
heavy: not shown
light 2: B9 light 1
notes: Tandem Fab; also called T9

Molecular target: T3, CD40 (UniProt P25942 21-193, limits assumed)
T3 construct: construct not described
T3 sequence (P25942 21-193 limits assumed): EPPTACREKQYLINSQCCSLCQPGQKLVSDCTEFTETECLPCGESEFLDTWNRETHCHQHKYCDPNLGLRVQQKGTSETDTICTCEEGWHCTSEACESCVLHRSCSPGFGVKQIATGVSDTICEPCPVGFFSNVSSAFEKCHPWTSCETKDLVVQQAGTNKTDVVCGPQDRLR
Assay: SPR

binding result | Binder
binds | B1

Molecular target: T4, PD-L1 (UniProt Q9NZQ7 19-239, limits assumed)
T4 construct: construct not described; also called Programmed Cell Death Ligand 1 (PD-L1)
T4 sequence (Q9NZQ7 19-239 limits assumed): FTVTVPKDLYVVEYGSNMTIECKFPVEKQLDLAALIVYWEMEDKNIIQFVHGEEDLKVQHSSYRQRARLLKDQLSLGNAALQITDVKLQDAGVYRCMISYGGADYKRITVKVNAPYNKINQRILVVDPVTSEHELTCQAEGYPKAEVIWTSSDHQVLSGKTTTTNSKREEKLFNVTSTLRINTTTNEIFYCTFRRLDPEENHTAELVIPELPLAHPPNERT
Assay: SPR (Biacore 3000), column 'Affinity'

Kd [nM] | Binder
0.023 | B2
0.019 | B3
0.051 | B4
0.058 | B5

Molecular target: T3, CD40
Assay: SPR (Biacore 3000), column 'Affinity'

Kd [nM] | Binder
2.4 | B6
2.1 | B2
2.4 | B3
1.6 | B4
1.7 | B5
4 | B7
3.1 | B8

Molecular target: T1, GITR
Assay: SPR (Biacore 3000), column 'Affinity'

Kd [nM] | Binder
0.3 | B9
0.9 | B10
0.5 | B11
0.6 | B12
0.7 | B13
0.7 | B14
0.6 | B15

Molecular target: T2, OX40
Assay: SPR (Biacore 3000), column 'Affinity'

Kd [nM] | binding result | Binder
0.3 | – | B9
0.2 | – | B10
– | no binding | B11
0.3 | – | B12
0.2 | – | B13
1 | – | B14
0.2 | – | B15
